For experiment [1], the target named is human Ly6E, N-terminal gD-tagged, stably expressed on PC3 cells (human) (UniProt Q16553). In words: Scatchard analysis on PC3 cells expressing gD-tagged human Ly6E (binding to the gD tag).
Experiment [2] deals with Cynomolgus monkey Ly6E, N-terminal gD-tagged, stably expressed on PC3 cells (cynomolgus monkey). In words: Scatchard analysis on PC3 cells expressing gD-tagged cyno Ly6E (binding to the gD tag).
Experiment [3] has as its target T1, human Ly6E, N-terminal gD-tagged, stably expressed on PC3 cells (human, UniProt Q16553 21-101).
T1 construct: GPI-linked protein on cells; also called hu Ly6E; human Ly6E transfected PC3 cells; not shown: N-terminal gD tag of the retroviral vector
T1 sequence: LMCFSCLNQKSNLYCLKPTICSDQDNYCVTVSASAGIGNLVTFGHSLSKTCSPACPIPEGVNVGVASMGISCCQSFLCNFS
Briefly: Scatchard analysis (125I antibody) on PC3 cells expressing gD-tagged human Ly6E. The protocol:
(§1) A scatchard analysis was performed to determine affinity and binding sites per cell for the antibodies. Hu.9B12v12 antibody was iodinated several times using the Iodogen method. […] Competition reaction mixtures of 50 μL containing a fixed concentration of iodinated antibody and decreasing concentrations of unlabeled antibody were placed into 96-well plates. The PC3 cells stably transduced with retrovirus to express either recombinant human or Cynomolgus monkey gD tagged Ly6E were detached from flasks using Sigma Cell Dissociation Solution and were washed with binding buffer (DMEM with 2% FBS, 50 mM HEPES, pH 7.2, and 0.1% sodium azide). The washed cells were added at an approximate density of 200,000 cells in 0.2 mL of binding buffer to the 96-well plates containing the 50-μL competition reaction mixtures. […] The filters were counted on a Wallac Wizard 1470 gamma counter (PerkinElmer Life and Analytical Sciences; Wellesley, Mass.). The binding data were evaluated using New Ligand software (Genentech), which uses the fitting algorithm of Munson and Rodbard (1980) to determine the binding affinity of the antibody.

Experiment [4] deals with T1, human Ly6E, N-terminal gD-tagged, …. In words: Scatchard analysis on PC3 cells expressing human Ly6E. The protocol:
as §1

Experiment [5] shares this target. Briefly: cell-based competitive binding on human Ly6E PC3 cells; competitor mouse 9B12. The protocol: (§2) Cell-based Ly6E competitive binding assay—Cultured human Ly6E transfected PC3 cells were harvested with 5 mM EDTA containing PBS. Cells were washed with PBS and added onto a 384-well high binding plate (Meso Scale Discovery Technology (MSD); Gaithersburg, Md.). The plate was kept at room temperature for 1 hr to allow cells to adhere to the plate as described (See Lu, Y., Wong, W. L. & Meng, Y. G. A high throughput electrochemiluminescent cell-binding assay for therapeutic anti-CD20 antibody selection. Journal of Immunological Methods 314, 74-79 (2006)). The plate with cells was blocked with fetal bovine serum containing PBS for 1 hr and then cooled on ice. Serially diluted antibody variant samples were mixed with equal volume of fixed concentration of mouse 9B12 Ab. The mixtures were added onto the plates and incubated at 4° C. with gentle shaking for 1 hr.
(§3) The plate was then washed with cold PBS and an anti-mouse IgG Fc specific Ab (Jackson ImmunoReserach; West Grove, Pa.) labeled with sulfo-ruthenium tag was added to the plate as the detection reagent. The plate was incubated at 4° C. with gentle shaking for 1 hr. After incubation the plate was washed again, and MSD read buffer (MSD; Gaithersburg, Md.) was added onto the wells. The plate was read with a MSD SectorÒ imager 6000. The data was graphed and analyzed using KaleidaGraph software (Synergy Software; Reading, Pa.) to determine IC₅₀ values.

Experiment [6] has the same target. In words: cell-based Ly6E competitive binding assay, human Ly6E; competitor mouse 9B12. The protocol:
as §2
The plate was then washed with cold PBS and an anti-mouse IgG Fc specific Ab (Jackson ImmunoReserach; West Grove, Pa.) labeled with sulfo-ruthenium tag was added to the plate as the detection reagent. […] After incubation the plate was washed again, and MSD read buffer (MSD; Gaithersburg, Md.) was added onto the wells. The plate was read with a MSD SectorÒ imager 6000. The data was graphed and analyzed using KaleidaGraph software (Synergy Software; Reading, Pa.) to determine IC₅₀ values.

The target of experiment [7] is T2, Cynomolgus monkey Ly6E, N-terminal gD-tagged, stably expressed on PC3 cells (cynomolgus monkey, UniProt Q16553 21-101 (human entry)).
T2 construct: also called cyno Ly6E; not shown: N-terminal gD tag of the retroviral vector
T2 chain: T1 sequence with A33T, I57L, V61I
Briefly: Scatchard analysis (125I antibody) on PC3 cells expressing gD-tagged cyno Ly6E. The protocol: as §1

The target of experiment [8] is T2, Cynomolgus monkey Ly6E, N-terminal …. Briefly: Scatchard analysis on PC3 cells expressing cyno Ly6E. The protocol:
as §1

The target is the same in experiment [9]. Briefly: cell-based Ly6E competitive binding assay, cyno Ly6E; competitor mouse 9B12.
Experiment [10] has as its target T3, Hu Ly6E (immobilized on CM5 chip for SPR) (human, UniProt Q16553 21-101).
T3 construct: also called human Ly6E
T3 sequence: T1 sequence
In words: SPR (Biacore T100), Hu Ly6E immobilized, IgG injected, single cycle kinetics, apparent KD. The protocol:
SPR Affinity Determination—Affinity determinations were performed by surface plasmon resonance using single cycle kinetics on a BIAcore™-T100. Hu Ly6E was immobilized via EDC/NHS chemistry according to supplier's instructions (˜20 response units (RU)) on a CM5 chip. For kinetic measurement, three-fold serial dilution of anti-Ly6E IgG (5 to 405 nM) in PBST were injected with 200 s for association & 300 s for dissociation at a flow rate of 30 ul/min at 25° C. Binding response was corrected by subtracting both the RU from a blank flow cell and from buffer run on the same flow cell. A 1:1 Languir model of simultaneous fitting of kₒₙ and koff was used to measure the apparent KD.
A general note: SPR reads the build-up and loss of mass on a sensor chip optically.

In experiment [11] the target is T1, human Ly6E, N-terminal gD-tagged, …. Briefly: cell-based Ly6E competitive binding assay on human Ly6E PC3 cells; competitor mouse 9B12. The protocol:
as §2, §3

Positions count from the first letter of the chain named. Where “and” joins values, the source holds several entries; their conditions need not be identical. Equal values may be shown once.

This is an account of results in US20180015177A1 (Genentech, published 2018).

In the case of anti-gD mAb (antibody), in experiment [1], the Kd was 1.1 nM and the Sites/Cell turned out to be 13000 sites/cell. Also, in experiment [2], the Kd amounted to 2 nM and the Sites/Cell was found to be 53000 sites/cell.

B1: hu9B12.v12 (antibody, V domains shown)
VH: EVQLVESGPALVKPTQTLTLTCTVSGFSLTGYSVNWIRQPPGKALEWLGMIWGDGSTDYNSALKSRLTISKDTSKNQVVLTMTNMDPVDTATYYCARDYYFNYASWFAYWGQGTLVTVSS
VL: DIQMTQSPSSLSASVGDRVTITCSASQGISNYLNWYQQKPGKTVKLLIYYTSNLHSGVPSRFSGSGSGTDYTLTISSLQPEDFATYYCQQYSELPWTFGQGTKVEIK
notes: Expressed and tested as IgG; Iodinated (125I) tracer plus unlabeled antibody in the Scatchard analysis; also called humanized anti-Ly6E antibody
By IC50 is commonly meant the midpoint of a concentration-inhibition curve. Take B1: the Kd was 4 nM in experiment [3]; 4 nM in experiment [4]; 15 to 19 nM in experiment [6]; 7.9 nM in experiment [7]; 14 nM in [8]; 16 to 40 nM in experiment [9]. For the same molecule, the Kd in experiment [10] came out at 7 nM. In addition, the IC50 in experiment [5] is 15 nM and 16 nM.

B2: humanized 9B12 variant v8 (antibody, V domains shown)
VH: EVQLVESGGGLVQPGGSLRLSCAASGFSLTGYSVNWVRQAPGKGLEWVGMIWGDGSTDYNSALKSRFTISRDNSKNTLYLQMNSLRAEDTAVYYCARDYYFNYASWFAYWGQGTLVTVSS
VL: B1 VL with Y71F
notes: IgG. k1 graft 43+44 / VH3 graft; Residue change derived
On to B2, for which the binding result in [11] is listed as “no binding”.

B3: humanized 9B12 variant v11 (antibody, V domains shown)
VH: B1 VH with V24F
VL: B1 VL
notes: IgG. k1 graft 43+44+71 / VH2 graft + 49; Residue change derived
Take B3: the binding result in [11] is listed as “no binding”.

B4: humanized 9B12 variant v3 (antibody, V domains shown)
VH: B2 VH
VL: B1 VL with T43A, V44P, Y71F
notes: Light chain changes derived
B4: in experiment [11], the binding result is reported as “no binding”.

B5: humanized 9B12 variant v6 (antibody, V domains shown)
VH: B1 VH with V24F
VL: B1 VL with Y71F
notes: IgG. k1 graft 43+44 / VH2 graft + 49; Residue changes derived
Consider B5, for which the binding result in experiment [11] is “no binding”.

B6: humanized 9B12 variant v13 (antibody, V domains shown)
VH: B2 VH
VL: B1 VL
notes: IgG. k1 graft 43+44+71 / VH3 graft
B6: the binding result in experiment [11] is reported as “no binding”.

B7: chimeric 9B12 (antibody, V domains shown)
VH: QVQLKESGPGLVAPSQSLSLTCTVSGFSLTGYSVNWVRQPPGKGLEWLGMIWGDGSTDYNSALKSRLTISKDNSKSQVFLKMNSLQTDDTARYYCARDYYFNYASWFAYWGPGTLVTVSA
VL: DIQMTQTTSSLSASLGDRVTISCSASQGISNYLNWYQQKPDGTVKLLIYYTSNLHSGVPSRFSGSGSGTDYSLTISNLEPEDIATYYCQQYSELPWTFGGGTKVEIK
notes: Chimeric IgG with the mouse 9B12 variable domains; also called ch9B12; Ch 9B12
Consider B7, for which the Kd in [3] is 2 nM; in experiment [4], 4 nM; in [6], 3 to 6 nM; in [7], 2.9 nM; in [8] it was 4 nM; in experiment [9] it was 5 to 7 nM. For the same molecule, the Kd in experiment [10] came out at 6 nM. Also, the half-maximal inhibitory concentration (IC50) in experiment [5] was 3 nM and 6 nM and 5 nM.
